Experimental data taken from patent US5958721.

Target: rabbit MAP kinase kinase (MAPKK) (rabbit) (UniProt P29678)

MAPKK phosphorylation in S. pombe (32P-orthophosphate labelling, immunoprecipitation, phosphorimager): > 5 fold
Substance: ΔRaf-1 (human Raf-1 lacking the first 324 amino acids) (from UniProt P04049) (enzyme)
